# T1: 人TIGIT (human, UniProt Q495A1 22-141, limits assumed)
# T1 construct: also called 人TIGIT抗原
# T1 sequence (looked up): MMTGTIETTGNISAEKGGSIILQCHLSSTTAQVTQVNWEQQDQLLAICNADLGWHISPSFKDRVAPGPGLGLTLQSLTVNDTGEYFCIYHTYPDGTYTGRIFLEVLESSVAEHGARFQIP
# T2: 人TIGIT-His (human, UniProt Q495A1 22-141, limits assumed)
# T2 construct: Loaded on Ni-NTA sensors in the BLI runs; also called Human TIGIT(His tag); not shown: His tag
# T2 sequence (looked up): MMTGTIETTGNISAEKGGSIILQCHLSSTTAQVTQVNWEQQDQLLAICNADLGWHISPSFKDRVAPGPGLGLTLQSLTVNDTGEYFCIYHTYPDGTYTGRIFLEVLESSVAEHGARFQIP
# Columns and labels:
# 人TIGIT = target: T1, 人TIGIT; experiment: ELISA, human TIGIT coated, HRP goat anti-mouse IgG
# 人TIGIT-His = target: T2, 人TIGIT-His; experiment: BLI (ForteBio Octet QK), Human TIGIT(His tag) on Ni-NTA sensor, antibody 3.125-100 nM; order of magnitude only
Binder,EC50 (人TIGIT) [nM],Kd (人TIGIT-His) [pM]
"鼠单克隆抗体Mab21 (antibody, mouse IgG2b, V domains shown, Mouse IgG2b (Kappa), purified from hybridoma #21 on protein G; also called 杂交瘤细胞株#21) VH: EVQLQQSGAELVKPGASVRLSCTASGFNIKDTYINWVKQRPEQGLEWIGRIDPANGDTKYAPKFQGKATITTDTSSNTAYLQLSSLTSEDTAVYYCPKSGDYGWYFDVWGAGTTVTVSS VL: DIVLTQSPASLSVTPGDSVSLSCRASQSISNNLHWYQQKSHESPRLLIKYASQSISGIPSRFSGSGSGTYFTLSINSVETEDFGMYFCQQSNSWLTFGAGTKLELKR",~0.018,~10
"鼠单克隆抗体Mab7 (antibody, mouse IgG1, V domains shown, Mouse IgG1 (Kappa), purified from hybridoma #7 on protein G; also called 杂交瘤细胞株#7) VH: QVQLQQSGAELVSPGTSVKVSCKASGYAFTNYLIEWIYQRPGQGLEWIGVINPGSGGTIYNEKFKGKATLTADKSSNIAYLQLSSLTSDDSAVYFCAGSYGSSYTFDYWGQGTTLTVSS VL: DIVMTQSHKFLSTSVGDSVSITCKASQHVSTAVVWYQQKPGQSPKLLIYSPSYRYTGVPDRFTGSGSGTDFTFTISSVQAEDLAVYYCHQHYSTPWTFGGGTKLEIKR",~0.018,~1

# Source: patent CN111196852A (SICHUAN KELUN BOTAI BIOMEDICAL CO LTD; ANYUAN MEDICINE TECH …, dated 2020)
